What all share (assay): multimer staining
The target of assay [1] is T1, TP53 C141Y, mimic peptide TP53_C141Y8 peptide on HLA-A*02:01 (human).
T1 peptide: KMYPVQLWL

Assay [2] concerns the target T2, TP53 C141Y peptide on HLA-A*02:01 (human).
T2 peptide: KTYPVQLWV

Assay [3] has as its target T3, PIK3CA G118D, mimic peptide PIK3CA_G118D5 peptide on HLA-A*02:01 (human).
T3 peptide: ILNREIDFV

In assay [4] the target is T4, PIK3CA G118D peptide on HLA-A*02:01 (human).
T4 peptide: ILNREIDFA

B1: TCR of SEQ ID NOs 210 and 114 (TCR)
alpha TRAV8-4*01 TRAJ8*01 CDR3: CAVSDEDTGFQKLVF
beta TRBV12-3*01 TRBJ1-2*01 CDR3: CASSFSTCSANYGYTF
As for B1, the binding result in assay [1] and in assay [2] was “recognises” in each case.

B2: TCR of SEQ ID NOs 120 and 114 (TCR)
alpha TRAV12-2*01 TRAJ15*01 CDR3: CAGLIGTALIF
beta TRBV12-3*01 TRBJ1-2*01 CDR3: CASSFSTCSANYGYTF
As for B2, the binding result in assay [3] and in assay [4] was “recognises” in each case.

The record behind these values is patent US20220194999A1 (published 2022).
